This note sets out measurements from the Human Domainome abundance scans (Beltran et al. 2025).

± gives the uncertainty stated by the source.

B1: Zinc finger MYM-type protein 6, residues 427 to 504; numbered along this chain, O95789 (parent)
chain: KLKCQHCNHLFATKPELLFYKGKMFLFCGKNCSDEYKKKNKVVAMCDYCKLQKIIKETVRFSGVDKPFCSEVCKFLSA

Variants of B1 are the subject of the data set. As to the kind of experiment: abundance fitness (aPCA) (normalised: wild type 0, dead -1); higher = more abundant; growth selection in yeast, the domain comes from the species named. The settings on record: Homo sapiens.
For the variant KLKCQHCNHLFATKPELLFYKGKMGLFCGKNCSDEYKKKNKVVAMCDYCKLQKIIKETVRFSGVDKPFCSEVCKFLSA [F25G], the abundance fitness is -0.028 ± 0.032.

With KLKCQHCNHLFATKPELLFYKGKMHLFCGKNCSDEYKKKNKVVAMCDYCKLQKIIKETVRFSGVDKPFCSEVCKFLSA [F25H], the abundance fitness is -0.109 ± 0.073. Turning to KLKCQHCNHLFATKPELLFYKGKMALFCGKNCSDEYKKKNKVVAMCDYCKLQKIIKETVRFSGVDKPFCSEVCKFLSA [F25A], the abundance fitness was 0.033 ± 0.03. Take KLKCQHCNHLFATKPELLFYKGKMELFCGKNCSDEYKKKNKVVAMCDYCKLQKIIKETVRFSGVDKPFCSEVCKFLSA [F25E]: the abundance fitness was -0.049 ± 0.035. With KLKCQHCNHLFATKPELLFYKGKMMLFCGKNCSDEYKKKNKVVAMCDYCKLQKIIKETVRFSGVDKPFCSEVCKFLSA [F25M] the figure was 0.048 ± 0.035; with KLKCQHCNHLFATKPELLFYKGKMWLFCGKNCSDEYKKKNKVVAMCDYCKLQKIIKETVRFSGVDKPFCSEVCKFLSA [F25W], -0.027 ± 0.035. To KLKCQHCNHLFATKPELLFYKGKMVLFCGKNCSDEYKKKNKVVAMCDYCKLQKIIKETVRFSGVDKPFCSEVCKFLSA [F25V] belongs -0.009 ± 0.039.

For the variant KLKCQHCNHLFATKPELLFYKGKMDLFCGKNCSDEYKKKNKVVAMCDYCKLQKIIKETVRFSGVDKPFCSEVCKFLSA [F25D], the abundance fitness was -0.031 ± 0.046. With KLKCQHCNHLFATKPELLFYKGKMILFCGKNCSDEYKKKNKVVAMCDYCKLQKIIKETVRFSGVDKPFCSEVCKFLSA [F25I], the abundance fitness is -0.126 ± 0.43.

KLKCQHCNHLFATKPELLFYKGKMSLFCGKNCSDEYKKKNKVVAMCDYCKLQKIIKETVRFSGVDKPFCSEVCKFLSA [F25S]: the abundance fitness was -0.036 ± 0.038. Consider KLKCQHCNHLFATKPELLFYKGKMPLFCGKNCSDEYKKKNKVVAMCDYCKLQKIIKETVRFSGVDKPFCSEVCKFLSA [F25P], for which the abundance fitness was -0.17 ± 0.036. As for KLKCQHCNHLFATKPELLFYKGKMLLFCGKNCSDEYKKKNKVVAMCDYCKLQKIIKETVRFSGVDKPFCSEVCKFLSA [F25L], the abundance fitness worked out at 0.043 ± 0.03. Consider KLKCQHCNHLFATKPELLFYKGKMCLFCGKNCSDEYKKKNKVVAMCDYCKLQKIIKETVRFSGVDKPFCSEVCKFLSA [F25C], for which the abundance fitness is -0.004 ± 0.051. To KLKCQHCNHLFATKPELLFYKGKMKLFCGKNCSDEYKKKNKVVAMCDYCKLQKIIKETVRFSGVDKPFCSEVCKFLSA [F25K] belongs -0.067 ± 0.041. Regarding KLKCQHCNHLFATKPELLFYKTKMFLFCGKNCSDEYKKKNKVVAMCDYCKLQKIIKETVRFSGVDKPFCSEVCKFLSA [G22T], the abundance fitness was -0.054 ± 0.049. With KLKCQHCNHLFATKPELLFYKCKMFLFCGKNCSDEYKKKNKVVAMCDYCKLQKIIKETVRFSGVDKPFCSEVCKFLSA [G22C] the figure was -0.063 ± 0.082; with KLKCQHCNHLFATKPELLFYKVKMFLFCGKNCSDEYKKKNKVVAMCDYCKLQKIIKETVRFSGVDKPFCSEVCKFLSA [G22V], -0.255 ± 0.047; with KLKCQHCNHLFATKPELLFYKPKMFLFCGKNCSDEYKKKNKVVAMCDYCKLQKIIKETVRFSGVDKPFCSEVCKFLSA [G22P], -0.33 ± 0.071. Turning to KLKCQHCNHLFATKPELLFYKWKMFLFCGKNCSDEYKKKNKVVAMCDYCKLQKIIKETVRFSGVDKPFCSEVCKFLSA [G22W], the abundance fitness is -0.226 ± 0.049. With KLKCQHCNHLFATKPELLFYKDKMFLFCGKNCSDEYKKKNKVVAMCDYCKLQKIIKETVRFSGVDKPFCSEVCKFLSA [G22D] the figure was -0.215 ± 0.5; with KLKCQHCNHLFATKPELLFYKMKMFLFCGKNCSDEYKKKNKVVAMCDYCKLQKIIKETVRFSGVDKPFCSEVCKFLSA [G22M], -0.118 ± 0.11.

Take KLKCQHCNHLFATKPELLFYKEKMFLFCGKNCSDEYKKKNKVVAMCDYCKLQKIIKETVRFSGVDKPFCSEVCKFLSA [G22E]: the abundance fitness was 0.049 ± 0.057. Consider KLKCQHCNHLFATKPELLFYKLKMFLFCGKNCSDEYKKKNKVVAMCDYCKLQKIIKETVRFSGVDKPFCSEVCKFLSA [G22L], for which the abundance fitness is -0.231 ± 0.056.

For the variant KLKCQHCNHLFATKPELLFYKAKMFLFCGKNCSDEYKKKNKVVAMCDYCKLQKIIKETVRFSGVDKPFCSEVCKFLSA [G22A], the abundance fitness is -0.065 ± 0.033.

As to KLKCQHCNHLFATKPELLFYKQKMFLFCGKNCSDEYKKKNKVVAMCDYCKLQKIIKETVRFSGVDKPFCSEVCKFLSA [G22Q], the abundance fitness is -0.011 ± 0.044.

For KLKCQHCNHLFATKPELLFYKFKMFLFCGKNCSDEYKKKNKVVAMCDYCKLQKIIKETVRFSGVDKPFCSEVCKFLSA [G22F], the abundance fitness is -0.254 ± 0.36. With KLKCQHCNHLFATKPELLFYKSKMFLFCGKNCSDEYKKKNKVVAMCDYCKLQKIIKETVRFSGVDKPFCSEVCKFLSA [G22S] the figure was -0.049 ± 0.048; with KLKCQHCNHLFATKPELLFYWGKMFLFCGKNCSDEYKKKNKVVAMCDYCKLQKIIKETVRFSGVDKPFCSEVCKFLSA [K21W], -0.133 ± 0.038; with KLKCQHCNHLFATKPELLFYYGKMFLFCGKNCSDEYKKKNKVVAMCDYCKLQKIIKETVRFSGVDKPFCSEVCKFLSA [K21Y], -0.099 ± 0.042. With KLKCQHCNHLFATKPELLFYSGKMFLFCGKNCSDEYKKKNKVVAMCDYCKLQKIIKETVRFSGVDKPFCSEVCKFLSA [K21S] the figure was 0.012 ± 0.044. Consider KLKCQHCNHLFATKPELLFYVGKMFLFCGKNCSDEYKKKNKVVAMCDYCKLQKIIKETVRFSGVDKPFCSEVCKFLSA [K21V], for which the abundance fitness is -0.155 ± 0.037.

For KLKCQHCNHLFATKPELLFYKGKGFLFCGKNCSDEYKKKNKVVAMCDYCKLQKIIKETVRFSGVDKPFCSEVCKFLSA [M24G], the abundance fitness was -0.059 ± 0.03. Turning to KLKCQHCNHLFATKPELLFYKGKCFLFCGKNCSDEYKKKNKVVAMCDYCKLQKIIKETVRFSGVDKPFCSEVCKFLSA [M24C], the abundance fitness is -0.004 ± 0.041. To KLKCQHCNHLFATKPELLFYKGKTFLFCGKNCSDEYKKKNKVVAMCDYCKLQKIIKETVRFSGVDKPFCSEVCKFLSA [M24T] belongs 0.118 ± 0.046; to KLKCQHCNHLFATKPELLFYKGKWFLFCGKNCSDEYKKKNKVVAMCDYCKLQKIIKETVRFSGVDKPFCSEVCKFLSA [M24W], -0.065 ± 0.034.
